# Assay results as given in publication PMC8377490.
# System: C[C@@H]1O[C@@H](O[C@H]2[C@H](O)[C@@H](O)C(O)O[C@@H]2C(=O)O)[C@H](O)[C@H](O)[C@H]1O
# Assay: purified protein
# Conditions: 50 mM Hepes-NaOH pH 7.0, 30 °C, 20 nM enzyme
substance,measurement,value
"FoRham1 (GA-specific L-rhamnose-α-1,4-D-glucuronate lyase) (Fusarium oxysporum)",Km,2800 ± 200 µM
same,kcat,95.5 s⁻¹
same,kcat/Km,34100 M⁻¹ s⁻¹
